Data published in the supplement of paper PMC9732359.
± gives the uncertainty stated by the source.

Experiment: protein stability index of a GFP-peptide fusion (yeast GPS) (PSI 1-4); higher = more stable; sorted into four equal gates, so the index is relative within each strain
How it was run: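 Sequencing reads from sorted gates were used to score each peptide. The library consisted of tiled 17-residue yeast protein peptides fused downstream of GFP on a Cherry-expressing plasmid, pooled and carried in yeast. Mid-log cultures in leucine-free medium were split into four equal gates by GFP/Cherry ratio, and each gate's plasmids were PCR-amplified and Illumina-sequenced. The protein stability index adds up, over all gates, the read frequency multiplied by the gate number.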

| Sequence | protein stability index (doa10∆) | protein stability index (pdr5∆) | protein stability index (san1∆) | protein stability index (ubr1∆) |
| --- | --- | --- | --- | --- |
| NNTNTGASGVDDFQNFF [SWI1] | 2.92 ± 0.068 | 3.16 ± 0.065 | 2.87 ± 0.069 | 3.31 ± 0.045 |
| AVTHNLYYDEDINVESL [PUP2] | 3.16 ± 0.11 | 3.25 ± 0.088 | 3.05 ± 0.18 | 2.89 ± 0.06 |
| KYLDQVLDHQRAIPFRR [RPL17B] | 2.78 ± 0.12 | 2.35 ± 0.076 | 1.87 ± 0.13 | 1.61 ± 0.066 |
| CKRELAFVKQKNDSLEK [YIL149C/MLP2] | 3.26 ± 0.16 | 3.33 ± 0.17 |  | 3.43 ± 0.19 |
| LLFIVGQVAIKTLVYLE [YCS4] |  | 1.74 ± 0.2 |  | 3.18 ± 0.1 |
| YLLSIWVKKFKWAGIKT [CYT1] | 2.38 ± 0.16 | 1.57 ± 0.099 | 2.17 ± 0.098 | 2.29 ± 0.17 |
| NLGEYESAVKYALAAKD [RPN2] | 2.42 ± 0.15 | 2.65 ± 0.09 | 2.7 ± 0.09 | 2.8 ± 0.054 |
| RITKSNEKSQAEQEKAK [LRP1] | 1.9 ± 0.075 | 1.33 ± 0.067 | 1.48 ± 0.18 | 1.25 ± 0.14 |
| ITFLQTLYIGNTANGRP [ECM29] | 2.04 ± 0.085 | 2.73 ± 0.09 | 2.6 ± 0.16 | 1.97 ± 0.12 |
| TFTQLVSSSLYERRFGP [PUP3] | 2.79 ± 0.12 | 2.94 ± 0.16 | 2.73 ± 0.12 | 2.94 ± 0.092 |
| EVGMKVQSGQIYINKSV [RET1] | 2.83 ± 0.074 | 3.05 ± 0.073 | 2.6 ± 0.082 | 3.08 ± 0.069 |
| LAEKVEKASRQQRKQKK [RPS24A] | 3.65 ± 0.27 | 3.33 ± 0.11 | 3.35 ± 0.1 | 3.15 ± 0.2 |
| GTVGNSHKTTKEDTVSW [RPL11A] | 3.07 ± 0.095 | 3.1 ± 0.095 | 3.22 ± 0.069 | 3.12 ± 0.18 |
| AFRTLRLARSEKKFRGI [RPL13A] | 3.4 ± 0.24 | 3.49 ± 0.15 |  | 3.3 ± 0.084 |
| KEDHPLEFYKDKFFNEV [SIR3] | 3.21 ± 0.086 | 3.2 ± 0.05 | 3.34 ± 0.055 | 3.43 ± 0.084 |
| NKKGRGHVKPVRCVNCS [RPS26A] | 3.18 ± 0.065 | 2.98 ± 0.077 | 2.98 ± 0.085 | 3.02 ± 0.076 |
| NTGGESVVKKEDNKYAI [RGR1] | 3.51 ± 0.1 | 3.39 ± 0.1 | 3.33 ± 0.094 | 3.4 ± 0.085 |
| NNFIVERVQSDENKDDE [SRP68] | 3.52 ± 0.16 | 3.35 ± 0.1 | 2.77 ± 0.23 | 3.04 ± 0.098 |
| KVTEKVLTQLTALALKY [CSI1] | 2.24 ± 0.044 | 2 ± 0.029 | 2 ± 0.039 | 2.13 ± 0.044 |
| KQNEQLHVEQLSGGQKT [SMC3] | 2.07 ± 0.095 | 2.71 ± 0.099 | 2.19 ± 0.1 | 2.19 ± 0.053 |
| AEEALEPSYIFEYLATV [PRE4] | 2.66 ± 0.059 | 2.44 ± 0.067 | 2.54 ± 0.061 | 2.73 ± 0.045 |
| HIAHTLPEKVNFRTMQQ [SSN2] | 2.78 ± 0.079 | 2.92 ± 0.072 | 2.83 ± 0.083 | 2.75 ± 0.071 |
| FTYNKFLLNQNKQLSQS [YIL149C/MLP2] | 2.68 ± 0.069 | 2.96 ± 0.06 | 3.15 ± 0.06 | 3.17 ± 0.062 |
| KRSGVIETVDDKLKDIV [ITC1] | 3.15 ± 0.29 | 3 ± 0.3 |  |  |
| VEFINKMENFEFLPLSL [SRB8] | 3.08 ± 0.16 | 3 ± 0.069 | 3.1 ± 0.12 | 3.16 ± 0.097 |
| FETETEVTFKNANIFSS [FAS1] | 3.15 ± 0.042 | 3.36 ± 0.055 | 3.35 ± 0.046 | 3.35 ± 0.037 |
| IKSQYYSRISKLKQLLD [YIL149C/MLP2] | 1.2 ± 0.095 | 1.87 ± 0.11 | 1.64 ± 0.12 | 1.45 ± 0.068 |

| Sequence | protein stability index (doa10∆) | protein stability index (pdr5∆) | protein stability index (san1∆) | protein stability index (ubr1∆) |
| --- | --- | --- | --- | --- |
| LTSFAEENNYQYGYSGS [SNF6] | 2.08 ± 0.064 | 2.22 ± 0.093 | 2.74 ± 0.11 | 2.48 ± 0.066 |
| QQIWKSPNFKNYLKYLE [SOH1] | 1.72 ± 0.047 | 1.91 ± 0.047 | 1.61 ± 0.047 | 2.22 ± 0.062 |
| LIKMSRSPPRPPSLKII [PRP28] | 2.16 ± 0.062 | 2.3 ± 0.068 | 2.3 ± 0.072 | 1.86 ± 0.052 |
| GTSQNYGTATADDADIE [MED1] | 3.22 ± 0.071 | 3.29 ± 0.073 | 3.08 ± 0.058 | 3.24 ± 0.061 |
| ELLIYKKSQCKKKTTLE [YIL149C/MLP2] | 3.03 ± 0.21 | 3.29 ± 0.13 | 2.95 ± 0.083 | 3.19 ± 0.15 |
| LPPPPPPPGLDELETKA [PRP8] | 3.13 ± 0.056 | 3.15 ± 0.057 | 3.25 ± 0.05 | 3.17 ± 0.05 |
| RLANLIDYKLRVLTQDG [SMB1] | 2.65 ± 0.089 | 2.69 ± 0.08 | 1.62 ± 0.13 | 2.79 ± 0.047 |
| WNRADNHFKDTYGFSIL [FAS1] | 3.07 ± 0.12 | 2.57 ± 0.069 | 3.35 ± 0.083 | 3.27 ± 0.092 |
| NVTKSSVGVIINKMVGN [RPL21A] | 2.17 ± 0.099 | 2.98 ± 0.11 | 2.46 ± 0.19 | 2.91 ± 0.13 |
| NENDLKTYNCLHEKYLT [SMC1] | 2.2 ± 0.072 | 2.68 ± 0.053 | 2.11 ± 0.083 | 3.02 ± 0.056 |
| LSGIIQDIYYLAQTLKL [RRI2] | 1.54 ± 0.081 | 1.66 ± 0.14 | 1.14 ± 0.092 | 1.04 ± 0.093 |
| MVSTPELKKYMDKKILL [SMX2] | 3.25 ± 0.15 | 3.62 ± 0.12 | 3.26 ± 0.092 | 3 ± 0.074 |
| IRGKILTGTVVSTKMHR [RPS11A] | 3 ± 0.066 | 2.99 ± 0.051 | 2.79 ± 0.052 | 2.9 ± 0.039 |
| TKKISNFNSSLHKRQQF [YJL039C/NUP192] | 2.73 ± 0.13 | 2.79 ± 0.12 | 1.4 ± 0.18 | 1.6 ± 0.11 |
| ETHPDNSNKQAVAILAD [BRR2] | 2.78 ± 0.053 | 2.93 ± 0.049 | 2.81 ± 0.045 | 2.98 ± 0.038 |
| IWMRGHGTYFLDNMTYS [RRP4] | 2.45 ± 0.06 | 2.38 ± 0.051 | 2.31 ± 0.082 | 2.19 ± 0.054 |
| ETLNDTIERSLIEEEVE [YCS4] | 3.42 ± 0.14 | 3.43 ± 0.082 | 3.31 ± 0.056 | 3.33 ± 0.097 |
| MFTQIYLERIELSFYIL [YML103C/NUP188] | 1.66 ± 0.1 | 1.46 ± 0.074 | 1.36 ± 0.1 | 1.75 ± 0.12 |
| TLGNALRYVIMKNPDVE [RPC19] | 2.93 ± 0.091 | 2.73 ± 0.059 | 2.46 ± 0.077 | 2.8 ± 0.055 |
| RDMIMKRNSDKVEYKIV [ITC1] | 1.78 ± 0.078 | 1.83 ± 0.078 | 1.85 ± 0.12 | 1.31 ± 0.047 |
| PQKPVPLNVLQDQYKEG [SNF2] | 3.01 ± 0.07 | 3.33 ± 0.096 | 3.1 ± 0.086 | 2.94 ± 0.044 |
| HLRSNILKDLIYRGVLN [SMC1] | 1.74 ± 0.059 | 1.78 ± 0.085 | 1.8 ± 0.14 | 1.74 ± 0.056 |
| ISTLQVKLYGREGSSAR [RPB2] | 2.71 ± 0.17 | 2.77 ± 0.1 | 2.77 ± 0.18 | 2.8 ± 0.086 |
| KYYIVSSSKSMINDENY [SRB8] | 2.91 ± 0.073 | 2.76 ± 0.056 | 2.43 ± 0.083 | 2.81 ± 0.04 |
| SGEEKGKKVTGFKDEVL [RPS1A] | 1.39 ± 0.24 | 1.73 ± 0.22 |  | 1.61 ± 0.14 |
| EVWSVSWNLTGTILSSA [YGL100W/SEH1] | 1.7 ± 0.07 | 1.5 ± 0.083 | 1.33 ± 0.15 | 1.63 ± 0.061 |
| NNTLSRYADAGNIDTKN [RRP43] | 3.35 ± 0.064 | 3.21 ± 0.058 | 3.28 ± 0.041 | 3.5 ± 0.054 |
